Where a chain is given by its changes, count along the chain named. “Also recorded” adds a separate entry of the source.
T1: FSTL1 (Homo sapiens, UniProt Q12841)
T1 sequence (Q12841 21-308): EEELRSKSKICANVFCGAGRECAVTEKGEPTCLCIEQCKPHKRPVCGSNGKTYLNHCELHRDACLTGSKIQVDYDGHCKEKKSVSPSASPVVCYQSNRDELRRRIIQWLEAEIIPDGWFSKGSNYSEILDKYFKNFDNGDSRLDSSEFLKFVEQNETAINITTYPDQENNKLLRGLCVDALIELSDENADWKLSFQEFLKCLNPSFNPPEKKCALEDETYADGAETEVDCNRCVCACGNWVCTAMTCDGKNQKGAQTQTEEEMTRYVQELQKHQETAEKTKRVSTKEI

B1: #8-4: chicken-mouse chimeric anti-FSTL1 antibody clone; variable regions SEQ ID NO: 795 (light), 797 (heavy) (antibody, V domains shown)
VH: AVTLDESGGGLQTPGGGLSLVCKGSGFTLSSFNMFWVRQAPGKGLEWVAGVGKDGGTAYGAAVDGRATISRDSGQSTVRLQLNNLRAEDTGTYFCAKAAGGCSYSWCGAYVGDLDAWGHGTEVIVSS
VL: ASSQPSSVSANPGETVKITCSGGSGYYYGWYQQKSPGSAPVTVIYNNDNKPSDIPSRFSGSKSGSTGTLTITGVQVEDEAVYFCGGYDNSGTGIFGAGTTLTVL
modifications: mouse constant regions
B2: #5-8: chicken-mouse chimeric anti-FSTL1 antibody clone; variable regions SEQ ID NO: 771 (light), 773 (heavy) (antibody, V domains shown)
VH: AVTLDESGGGLQTPGGGLSLVCKGSGFTFSSFNMFWVRQAPGKGLEWVAGIGKDGVPKYGTAVDGRATISKDNGQSTMRLQLNNLRAEDTGTYFCAKAAGGCSYDWCGIYTGDIDTWGHGTEVIVSS
VL: ASTQPSSVSANPGEAVKITCSGGSGSYYGWYQQKSPGSAPVTVIYNNNQRPSDIPSRFSGSKSGSTATLTITGVQAEDEAVYFCGGYDSSTGHGGIFGAGTTLTVL
modifications: mouse constant regions
B3: #8-7: chicken-mouse chimeric anti-FSTL1 antibody clone; variable regions SEQ ID NO: 799 (light), 801 (heavy) (antibody, V domains shown)
VH: B2 VH with T61A, M78L, T111A
VL: B2 VL
modifications: mouse constant regions
B4: #5-2: chicken-mouse chimeric anti-FSTL1 antibody clone; variable regions SEQ ID NO: 763 (light), 765 (heavy) (antibody, V domains shown)
VH: B1 VH with L29F, A58G, R71K, S73N, V78L, F94Y, S105G, A109S, L114I
VL: B2 VL
modifications: mouse constant regions

What was measured:
[1] = system: human pancreatic cancer cell line Panc1; assay: Inhibitory activity against activation of tumor cell by FSTL1, RANKL-/CCR2-positive cells (Examples 5, 7, 9-11); type: cell-based; settings: antibody 10 μg/mL, 3 days
Protocol: It is known that tumor cells activated by stimulation with FSTL1 highly express molecule groups promoting bone metastasis and increase metastatic invasive capacity (Cancer Research 73: 6185, 2013). Thus, […] cells/well of a human pancreatic cancer cell line Panc1 were suspended in 1 mL/well of D-MEM medium (GIBCO/Thermo Fisher Scientific Inc. Cat. No. C11885500BT) containing 10% fetal bovine serum, supplemented with 50 ng/mL (final concentration) of FSTL1 (R&D Systems, Inc.) and 10 μg/mL of the anti-FSTL1 antibody (#5-2, #5-8, #5-10, #5-43, #6-55, or #7-34) or its isotype mouse IgG (anti-DNP antibody) as a control antibody “Control”, and cultured under stimulation (6-well plate). 3 days thereafter, the number of cells was counted while the cells were stained with a PE-labeled anti-RANKL antibody (eBioscience Cat. No. 12-6619) and a PE-labeled anti-CCR2 antibody (R&D Systems, Inc. Cat. No. FAB151P) in order to examine the expression of markers indicating bone metastatic properties, and the contents of RANKL-positive cells and CCR2-positive cells were analyzed by flow cytometry using FACScan (Becton, Dickinson and Company) to calculate the numbers of cells per culture. […] Therefore, in Examples below, judgment was made with the number of cells as an index.
In the same way as in Example 5, a human pancreatic cancer cell line Panc1 was supplemented with 50 ng/mL (final concentration) of FSTL1 (R&D Systems, Inc.) and 10 μg/mL of the anti-FSTL1 antibody (the same clones as in Example 6) or a control antibody and cultured under stimulation.
3 days thereafter, the number of cells was counted while the cells were stained with a PE-labeled anti-RANKL antibody and a PE-labeled anti-CCR2 antibody, and the contents of RANKL-positive cells and CCR2-positive cells were analyzed by flow cytometry using FACScan (Becton, Dickinson and Company) to calculate the numbers of cells per culture (FIG. 5B).
(§1) In the same way as in Example 5, a human pancreatic cancer cell line Panc1 was supplemented with 20 ng/mL (final concentration) of FSTL1 and 10 μg/mL of the anti-FSTL1 antibody (#5-2, #5-8, or #6-55) or a control antibody and cultured under stimulation. 3 days thereafter, the number of cells was counted while the cells were stained with a PE-labeled anti-RANKL antibody and a PE-labeled anti-CCR2 antibody, and the contents of RANKL-positive cells and CCR2-positive cells were analyzed by flow cytometry using FACScan (Becton, Dickinson and Company) to calculate the numbers of cells per culture (FIG. 6B).
as §1, with “50” for “20”, “#5-3, #6-55, #7-34, #8-1, #8-4, #8-7,” for “#5-8,”, “#8-8)” for “#6-55)”, “culture.” for “culture (FIG. 6B).”
as §1, with “50” for “20”, “(#6-55)” for “(#5-2, #5-8, or #6-55)”, “culture.” for “culture (FIG. 6B).”
It is known that tumor cells activated by stimulation with FSTL1 highly express molecule groups promoting bone metastasis and increase metastatic invasive capacity (Cancer Research 73: 6185, 2013). […]

FSTL1 = molecular target: T1, FSTL1; assay: Inhibition of MSC induction by FSTL1 in mouse bone marrow cells, CD45-negative cells (Examples 6, 8, 12); type: cell-based; parameters: purchased R&D Systems, Inc. 1694-FN-050; settings: antibody 10 μg/mL
Protocol: Mouse bone marrow cells prepared in the same way as in Example 4 were supplemented with 50 ng/mL (final concentration) of FSTL1 and 10 μg/mL of the anti-FSTL1 antibody (#5-2, #5-3, #5-8, #5-10, 45-43, #6-55, or #7-34) or a control antibody anti-DNP antibody and cultured under stimulation. 11 days thereafter, the number of cells was counted while the cells were stained with a PE-Cy5-labeled anti-CD45 antibody (BD Pharmingen/Becton, Dickinson and Company, Cat. No. 555484), and the content of CD45− negative cells reported to generally contain MSCs at a high rate was analyzed by flow cytometry using FACScan to calculate the percentage and number of MSCs per culture (FIG. 67A).
(§2) Mouse bone marrow cells prepared in the same way as in Example 4 were supplemented with 20 ng/mL (final concentration) of FSTL1 and 10 μg/mL of the anti-FSTL1 antibody (#5-2, #5-3, #5-8, #5-10, #5-43, #6-55, #8-1, #8-4, #8-7, and #8-8) or a control antibody anti-DNP antibody and cultured under stimulation. 8 days thereafter, the number of cells was counted while the cells were stained with a PE-Cy5-labeled anti-CD45 antibody, and the content of CD45− negative cells was analyzed by flow cytometry using FACScan to calculate the percentage and number of MSCs per culture (FIG. 68A).
as §2, with “(#5-2,” for “(#5-2, #5-3,”, “#5-8,” for “#5-8, #5-10, #5-43,”, “#6-55, #7-34,” for “#6-55,”, “#8-7, or” for “#8-7, and”, “(FIG. 69).” for “(FIG. 68A).”

[2] = Example 10, FIG. 6C/36C, FSTL1 50 ng/mL
[3] = Example 8, FSTL1 20 ng/mL, 8 days
[4] = Example 12, FSTL1 20 ng/mL, 8 days

Row | Molecule | inhibitory activity against the expansion of RANKL-positive cells and CCR2-positive cells [1, 2] | inhibitory activity against the expansion of CD45-negative cells by FSTL1 (FSTL1; [3]) | inhibitory activity against the expansion of RANKL-positive cells and CCR2-positive cells ([1]; Example 7, FIG. 5B/35B, FSTL1 50 ng/mL) | inhibitory activity against the expansion of RANKL-positive cells and CCR2-positive cells ([1]; Example 9, FIG. 6B/36B, FSTL1 20 ng/mL) | inhibitory activity against the expansion of CD45-negative cells by FSTL1 (FSTL1; Example 6, FSTL1 50 ng/mL, 11 days) | inhibitory activity against the expansion of CD45-negative cells by FSTL1 (FSTL1; [4])
1 | B1 | high inhibitory activity; also recorded: higher inhibitory activity | exhibited inhibitory activity | – | – | – | –
2 | B2 | – | Inhibitory activity was confirmed; also recorded: exhibited inhibitory activity | higher inhibitory activity | exhibited inhibitory activity against the expansion of RANKL-positive cells and CCR2-positive cells; also recorded: higher inhibitory activity | higher inhibitory activity and substantially completely inhibited the action of FSTL1 | –
3 | B3 | high inhibitory activity; also recorded: higher inhibitory activity | – | – | – | – | stronger inhibitory activity was confirmed in the order of clone #7-34, #5-2, 46-55, and #8-7; also recorded: higher inhibitory activity was confirmed in the order of #7-34, #5-2, #6-55, and #8-7; also recorded: stronger inhibitory activity was confirmed in the order of clone #7-34, #5-2, 96-55, and #8-7
4 | B4 | high inhibitory activity; also recorded: higher inhibitory activity | – | – | – | – | stronger inhibitory activity was confirmed in the order of clone #7-34, #5-2, 46-55, and #8-7; also recorded: higher inhibitory activity was confirmed in the order of #7-34, #5-2, #6-55, and #8-7; also recorded: stronger inhibitory activity was confirmed in the order of clone #7-34, #5-2, 96-55, and #8-7

From US20180021429A1, “ANTICANCER AGENTS OR ANTIMETASTATIC AGENTS USING FSTL1 AND COMBINATION DRUG THEREOF” (PHARMA FOODS INTERNATIONAL CO., LTD., priority 2015, published 2018)
